Assay results from patent US6881557 (ARROWSMITH TECHNOLOGY LICENSING, dated 2005).

How the values were obtained:
CD28Ig [1] = molecular target: T1, CD28Ig (human, UniProt P10747 19-152); assay: ELISA on CD28Ig coated plates (FIG. 11 legend)
T1 construct: also called GD28Ig; human CD28; not shown: Ig part of CD28Ig; not described

CD28Ig [2] = molecular target: T1, CD28Ig; assay: ELISA, CD28Ig coated plates, detection with anti-human kappa immunoconjugate
chicken lysozyme [3] = molecular target: T2, chicken lysozyme (chicken, UniProt P00698 19-147); assay: intrinsic tryptophan fluorescence quench titration, 200 nM Fab titrated with lysozyme in solution
T2 construct: also called chicken lysozyme antigen

chicken lysozyme [4] = molecular target: T2, chicken lysozyme; assay: fluorescence quench titration (FIG. 7 legend); FIG. 7 legend, bound only
chicken lysozyme [5] = molecular target: T2, chicken lysozyme; assay: fluorescence quench titration; reference is the literature Kd of D1.3 IgG (4 nM)
[6] = molecular target: T3, human glutamic acid decarboxylase 65 kilodalton isoform (human, UniProt Q05329 1-585); assay: immunoprecipitation of 35S-methionine labelled GAD65 with Fab and Protein G-Sepharose; midpoint read visually
T3 construct: also called GAD65; antigen
T3 sequence (Q05329 whole entry, canonical isoform): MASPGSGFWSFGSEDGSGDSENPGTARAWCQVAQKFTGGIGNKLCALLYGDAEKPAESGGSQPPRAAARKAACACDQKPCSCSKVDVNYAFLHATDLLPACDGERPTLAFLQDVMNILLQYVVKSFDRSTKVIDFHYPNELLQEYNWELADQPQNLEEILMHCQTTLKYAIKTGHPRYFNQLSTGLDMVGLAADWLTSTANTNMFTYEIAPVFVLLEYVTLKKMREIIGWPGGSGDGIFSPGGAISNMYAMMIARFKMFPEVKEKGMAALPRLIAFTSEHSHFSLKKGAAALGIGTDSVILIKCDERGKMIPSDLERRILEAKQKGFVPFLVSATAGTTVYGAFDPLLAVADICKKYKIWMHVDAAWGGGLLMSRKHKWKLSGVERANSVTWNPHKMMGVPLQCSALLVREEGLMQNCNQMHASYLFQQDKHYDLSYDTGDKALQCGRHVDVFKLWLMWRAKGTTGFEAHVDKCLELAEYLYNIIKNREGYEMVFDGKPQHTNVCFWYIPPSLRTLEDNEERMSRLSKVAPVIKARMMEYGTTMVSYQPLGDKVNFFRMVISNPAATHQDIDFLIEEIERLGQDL

T2 sequence (P00698 19-147 limits assumed): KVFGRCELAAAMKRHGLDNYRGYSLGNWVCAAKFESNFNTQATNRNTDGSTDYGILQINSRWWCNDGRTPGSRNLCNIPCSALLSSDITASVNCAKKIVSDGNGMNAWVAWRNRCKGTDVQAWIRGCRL

B1: humanized anti-human CD28 (Hu.9.3) Fab fragment (Fab, V domains shown)
VH: EVQLVQSGGGLVQPGGSLRLSCAGSGFTFSDYGVHWVRQAPGKGLEWVSAIWAGGGTNYASSVMGRFTISRDNAKNSLYLQMNSLRAEDMAVYYCARDKGYSYYYSMDYWGQGTLVTVSS
VL: DIVMTQSPDSLAVSLGERATINCRASESVEYYVTSLMAWYQQKPGQPPKLLIYAASNVESGVPDRFSGSGSGTNFSLTISSLQAEDVAVYYCQQSRKVPYTFGQGTKLEIKR
notes: also called humanized 9.3
Ka (CD28Ig [1]): > 1e+06 M⁻¹
EC50 (CD28Ig [2]): 630 nM

B2: hybrid Fab fragment comprised of human constant domains, mouse 9.3 heavy chain variable domain, and humanized light chain variable domain (Fab, V domains shown)
VH: EVKLQQSGPGLVTPSQSLSITCTVSGFSLSDYGVHWVRQSPGQGLEWLGVIWAGGGTNYNSALMSRKSISKDNSKSQVFLKMNSLQADDTAVYYCARDKGYSYYYSMDYWGQGTSVTVSS
VL: B1 VL
EC50 (CD28Ig [2]): 30 nM

B3: humanized D1.3 Fab (Fab, V domains shown)
VH: QVQLQESGPGLVKPSETLSLTCTVSGGSVSGYGVNWIRQPPGKGLEWIGMIWGDGNTDYNSSLKSRVTISVDTSKNQFSLKLSSVTAADTAVYYCARERDYRLDYWGQGTLVTVSS
VL: AIRMTQSPFSLSASVGDRVTITCRASGNIHNYLAWYQQKPAKAPKLFIYYTTTLADGVPSRFSGSGSGTDYTLTISSLQPEDFATYYCQHFWSTPRTFGGGTKVEIKR
notes: also called SHuD1.3; humanized D1.3 antibody
Kd (chicken lysozyme [3]): 23 nM
Ka (chicken lysozyme [4]): 4.3e+07 M⁻¹
factor by which affinity is diminished relative to the subject mouse antibody D1.3 (chicken lysozyme [5]): < 6 fold

B4: Fab fragment comprised of mouse NGAD65 variable and constant domains (Fab, V domains shown)
VH: QVQLQQPGAELVKPGASVKMSCKASGYRFSSYNMHWVKQTPGQGLEWIGAIYPRSGDTSYNQKFKGKATLTADKSSSTAYMQLGSLTSEDSAVYYCVRSYDYDAPFAFWGQGTLVTVSA
VL: VLTQTPLSLPVSLGDQASISCRSSQSLEHNNGNTYLNWYLQKPGQSPQLLIYRVSNRFSGGLDRFSGSGSGTDFTLKISRVEAEDLGVYFCLQVTHVPFTFGSGTKLEIKR
notes: also called mouse Fab; mouse NGAD65 Fab
EC50 [6]: 0.36 pM
